According to paper PMC9482650, “Quantitative fragmentomics allow affinity mapping of interactomes” (Nature Communications, 2022):

Tests used:
Assay in all cases: holdup assay
Parameters in all cases: key: below the threshold = too weak to quantify, mostly under pKd 3.1 to 4
Conditions in all cases: plain residues with an end cap or a label only (N-terminal biotin on a linker: ttds)
IL16_3, Q14005 = target: IL16_3, Q14005
Inadl_5, Q8NI35 = target: Inadl_5, Q8NI35
GRIP2_4, Q9C0E4 = target: GRIP2_4, Q9C0E4
GRIP2_4, Q9C0E4, sequence (Q9C0E4 446-548): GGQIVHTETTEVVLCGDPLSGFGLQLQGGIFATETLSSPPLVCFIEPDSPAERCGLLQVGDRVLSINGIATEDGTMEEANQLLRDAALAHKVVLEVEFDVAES

Inadl_10, Q8NI35 = target: Inadl_10, Q8NI35
Inadl_10, Q8NI35, sequence (Q8NI35 1673-1763): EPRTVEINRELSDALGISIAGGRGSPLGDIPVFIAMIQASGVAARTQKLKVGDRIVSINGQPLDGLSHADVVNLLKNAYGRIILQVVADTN

CASK, O14936 = target: CASK, O14936
CASK, O14936, sequence (O14936 487-570): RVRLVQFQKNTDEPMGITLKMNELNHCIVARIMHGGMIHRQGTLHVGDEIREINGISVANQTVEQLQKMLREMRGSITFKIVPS

MPP2, Q14168 = target: T1, MPP2, Q14168
T1 sequence (Q14168 180-250, limits assumed, looked up): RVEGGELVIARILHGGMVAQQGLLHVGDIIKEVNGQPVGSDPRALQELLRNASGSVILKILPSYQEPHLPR

LRRC7, Q96NW7 = target: T2, LRRC7, Q96NW7
T2 sequence (Q96NW7 1440-1537, limits assumed, looked up): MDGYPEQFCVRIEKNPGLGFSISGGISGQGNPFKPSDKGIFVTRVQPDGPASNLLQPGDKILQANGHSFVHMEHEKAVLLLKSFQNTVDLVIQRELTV

ARHGEF12, Q9NZN5-2 = target: ARHGEF12, Q9NZN5-2
ARHGEF12, Q9NZN5-2, sequence (Q9NZN5 other isoform, or with tags, fused parts or gaps): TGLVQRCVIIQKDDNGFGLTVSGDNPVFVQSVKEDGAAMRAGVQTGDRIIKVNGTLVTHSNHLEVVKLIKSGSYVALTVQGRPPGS

PCLO, Q9Y6V0 = target: T3, PCLO, Q9Y6V0
T3 sequence (Q9Y6V0 4491-4600, limits assumed, looked up): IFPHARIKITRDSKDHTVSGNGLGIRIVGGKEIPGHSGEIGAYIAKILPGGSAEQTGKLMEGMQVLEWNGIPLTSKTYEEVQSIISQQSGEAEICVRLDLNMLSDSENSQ

PTPN3, P26045 = target: PTPN3, P26045
PTPN3, P26045, sequence (P26045 505-587): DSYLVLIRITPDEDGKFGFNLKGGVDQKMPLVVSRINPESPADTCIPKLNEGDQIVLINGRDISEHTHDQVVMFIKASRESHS

HTRA1, Q92743 = target: HTRA1, Q92743
HTRA1, Q92743, sequence (Q92743 360-477): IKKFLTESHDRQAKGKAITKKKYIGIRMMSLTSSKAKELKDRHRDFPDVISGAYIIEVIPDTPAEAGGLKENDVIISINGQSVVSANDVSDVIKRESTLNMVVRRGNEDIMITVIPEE

TJP1_2, Q07157 = target: TJP1_2, Q07157
TJP1_2, Q07157, sequence (Q07157 181-274): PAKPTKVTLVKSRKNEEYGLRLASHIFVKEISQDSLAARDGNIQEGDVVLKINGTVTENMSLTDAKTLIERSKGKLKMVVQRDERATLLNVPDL

Inadl_2, Q8NI35 = target: Inadl_2, Q8NI35
Inadl_2, Q8NI35, sequence (Q8NI35 238-335): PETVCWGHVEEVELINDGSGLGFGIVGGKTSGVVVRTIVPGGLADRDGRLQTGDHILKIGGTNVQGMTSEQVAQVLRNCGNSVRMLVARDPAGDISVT

FRMPD4, Q14CM0 = target: FRMPD4, Q14CM0
FRMPD4, Q14CM0, sequence (Q14CM0 67-160): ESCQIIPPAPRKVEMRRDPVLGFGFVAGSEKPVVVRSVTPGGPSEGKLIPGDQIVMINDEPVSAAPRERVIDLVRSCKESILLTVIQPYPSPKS

DLG5_1, Q8TDM6 = target: DLG5_1, Q8TDM6
DLG5_1, Q8TDM6, sequence (Q8TDM6 617-713): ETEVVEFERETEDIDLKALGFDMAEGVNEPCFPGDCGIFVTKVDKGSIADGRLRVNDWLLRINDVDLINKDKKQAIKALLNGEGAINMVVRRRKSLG

RADIL, Q96JH8 = target: T4, RADIL, Q96JH8
T4 sequence (Q96JH8 971-1071, limits assumed, looked up): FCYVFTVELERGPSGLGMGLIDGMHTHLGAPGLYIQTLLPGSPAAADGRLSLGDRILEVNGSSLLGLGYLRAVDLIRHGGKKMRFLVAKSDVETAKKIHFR

NHERF4_2, Q86UT5 = target: NHERF4_2, Q86UT5
NHERF4_2, Q86UT5, sequence (Q86UT5 220-308): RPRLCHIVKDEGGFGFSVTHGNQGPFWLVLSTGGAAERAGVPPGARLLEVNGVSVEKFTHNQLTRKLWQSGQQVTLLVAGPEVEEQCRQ

MAGI1_1, Q96QZ7 = target: MAGI1_1, Q96QZ7
MAGI1_1, Q96QZ7, sequence (Q96QZ7 1-106): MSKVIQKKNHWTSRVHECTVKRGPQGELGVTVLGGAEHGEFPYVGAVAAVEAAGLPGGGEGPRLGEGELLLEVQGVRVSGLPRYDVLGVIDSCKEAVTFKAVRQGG

MAST2, Q6P0Q8 = target: MAST2, Q6P0Q8
MAST2, Q6P0Q8, sequence (Q6P0Q8 1099-1202): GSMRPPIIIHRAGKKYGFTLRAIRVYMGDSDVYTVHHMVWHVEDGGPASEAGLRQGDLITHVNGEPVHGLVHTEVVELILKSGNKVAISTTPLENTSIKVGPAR

ARHGAP21, Q5T5U3 = target: T5, ARHGAP21, Q5T5U3
T5 sequence (Q5T5U3 45-169, limits assumed, looked up): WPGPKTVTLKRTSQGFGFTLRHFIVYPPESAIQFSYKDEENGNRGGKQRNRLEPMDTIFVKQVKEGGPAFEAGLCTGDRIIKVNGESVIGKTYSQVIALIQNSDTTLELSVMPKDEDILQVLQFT

ARHGEF11, O15085 = target: T6, ARHGEF11, O15085
T6 sequence (O15085 42-136, limits assumed, looked up): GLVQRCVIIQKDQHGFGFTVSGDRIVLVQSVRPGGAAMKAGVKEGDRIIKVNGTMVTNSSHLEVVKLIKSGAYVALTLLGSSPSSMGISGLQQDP

LIN7B, Q9HAP6 = target: T7, LIN7B, Q9HAP6
T7 sequence (Q9HAP6 88-185, limits assumed, looked up): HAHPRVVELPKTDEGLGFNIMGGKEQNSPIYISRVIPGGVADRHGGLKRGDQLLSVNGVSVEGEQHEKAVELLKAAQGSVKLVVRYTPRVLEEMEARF

APBA3_1, O96018 = target: T8, APBA3_1, O96018
T8 sequence (O96018 389-490, limits assumed, looked up): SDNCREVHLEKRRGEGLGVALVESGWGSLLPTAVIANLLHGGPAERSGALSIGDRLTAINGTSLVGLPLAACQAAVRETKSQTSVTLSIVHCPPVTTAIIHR

MPDZ_12, O75970 = target: T9, MPDZ_12, O75970
T9 sequence (O75970 1857-1958, limits assumed, looked up): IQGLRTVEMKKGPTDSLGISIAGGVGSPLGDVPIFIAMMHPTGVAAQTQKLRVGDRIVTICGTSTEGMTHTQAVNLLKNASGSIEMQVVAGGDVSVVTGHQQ

PICK1, Q9NRD5 = target: PICK1, Q9NRD5
PICK1, Q9NRD5, sequence (Q9NRD5 17-115): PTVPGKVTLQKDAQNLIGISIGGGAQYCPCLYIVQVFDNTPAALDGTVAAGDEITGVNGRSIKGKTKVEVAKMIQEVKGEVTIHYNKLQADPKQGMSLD

PTPN13_1, Q12923 = target: T10, PTPN13_1, Q12923
T10 sequence (Q12923 1088-1188, limits assumed, looked up): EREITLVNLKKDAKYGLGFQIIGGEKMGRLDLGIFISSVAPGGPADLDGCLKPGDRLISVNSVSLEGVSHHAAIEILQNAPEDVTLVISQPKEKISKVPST

SHANK1, Q9Y566 = target: T11, SHANK1, Q9Y566
T11 sequence (Q9Y566 658-767, limits assumed, looked up): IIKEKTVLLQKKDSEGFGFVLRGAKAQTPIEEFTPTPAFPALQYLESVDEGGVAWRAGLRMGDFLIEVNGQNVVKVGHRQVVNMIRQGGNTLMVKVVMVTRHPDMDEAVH

IL16_3, Q14005, sequence (Q14005 1107-1207): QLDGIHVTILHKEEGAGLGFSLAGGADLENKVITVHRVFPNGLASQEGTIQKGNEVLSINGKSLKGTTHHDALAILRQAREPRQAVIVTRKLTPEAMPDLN
Inadl_5, Q8NI35, sequence (Q8NI35 673-780): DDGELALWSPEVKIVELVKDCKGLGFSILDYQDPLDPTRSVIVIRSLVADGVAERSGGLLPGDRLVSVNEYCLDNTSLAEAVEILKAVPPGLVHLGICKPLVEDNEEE

pKd (IL16_3, Q14005): below the threshold | pKd (Inadl_5, Q8NI35): below the threshold | pKd (GRIP2_4, Q9C0E4): below the threshold | pKd (Inadl_10, Q8NI35): 3.52 | pKd (CASK, O14936): below the threshold | pKd (MPP2, Q14168): below the threshold | pKd (LRRC7, Q96NW7): 4.39 | pKd (ARHGEF12, Q9NZN5-2): 5.21 | pKd (PCLO, Q9Y6V0): below the threshold | pKd (PTPN3, P26045): 5.11 | pKd (HTRA1, Q92743): below the threshold | pKd (TJP1_2, Q07157): below the threshold | pKd (Inadl_2, Q8NI35): below the threshold | pKd (FRMPD4, Q14CM0): 4.64 | pKd (DLG5_1, Q8TDM6): below the threshold | pKd (RADIL, Q96JH8): 3.56 | pKd (NHERF4_2, Q86UT5): below the threshold | pKd (MAGI1_1, Q96QZ7): below the threshold | pKd (MAST2, Q6P0Q8): 5.92 | pKd (ARHGAP21, Q5T5U3): 4.53 | pKd (ARHGEF11, O15085): 4.93 | pKd (LIN7B, Q9HAP6): 4.44 | pKd (APBA3_1, O96018): below the threshold | pKd (MPDZ_12, O75970): below the threshold | pKd (PICK1, Q9NRD5): below the threshold | pKd (PTPN13_1, Q12923): below the threshold | pKd (SHANK1, Q9Y566): 5.1
Binder: STLTIFETAL [ABCC4, O15439]
